For experiment [1], the target named is T1, PSA (human, UniProt P07288). The experiment can be described thus: SPR. A general note: Surface plasmon resonance follows binding to a sensor surface in real time, without labels.
Another experiment deals with hK2 (human, UniProt P20151). The experiment can be described thus: other, IFMA.
A further experiment addresses PSA-API complex (human, UniProt P07288). The experiment can be described thus: other, IFMA.
The target in the next experiment is T2, cathepsin G (human, UniProt P08311).
T2 chain: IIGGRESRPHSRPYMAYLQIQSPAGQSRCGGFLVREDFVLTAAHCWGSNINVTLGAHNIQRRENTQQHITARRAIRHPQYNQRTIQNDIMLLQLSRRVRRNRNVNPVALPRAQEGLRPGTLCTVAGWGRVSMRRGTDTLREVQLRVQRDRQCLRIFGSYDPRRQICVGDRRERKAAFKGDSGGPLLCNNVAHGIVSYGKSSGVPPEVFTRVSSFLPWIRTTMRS
Kind of experiment: other, IFMA.

A further experiment deals with trypsin. Kind of experiment: other, IFMA.
The target of the next experiment is PSA-ACT complex (human, UniProt P07288). The experiment can be described thus: other, IFMA.
For experiment [2], the target named is T1, PSA. Kind of experiment: SPR, 0 uM Zn2+.
In experiment [3] the target is T1, PSA. The experiment can be described thus: SPR, 1 uM Zn2+.
For experiment [4], the target named is T1, PSA. Kind of experiment: SPR, 30 uM Zn2+.
For experiment [5], the target named is T1, PSA. The experiment can be described thus: SPR, 10 uM Zn2+.
Experiment [6] addresses T1, PSA. Kind of experiment: competition, IFMA with free PSA.
Experiment [7] addresses T1, PSA. Kind of experiment: other, IFMA.

Bridge positions count the residues as written; N and C are the ends. Ends that are not written are not given here.

Sequence of hK2 (P20151 25-261): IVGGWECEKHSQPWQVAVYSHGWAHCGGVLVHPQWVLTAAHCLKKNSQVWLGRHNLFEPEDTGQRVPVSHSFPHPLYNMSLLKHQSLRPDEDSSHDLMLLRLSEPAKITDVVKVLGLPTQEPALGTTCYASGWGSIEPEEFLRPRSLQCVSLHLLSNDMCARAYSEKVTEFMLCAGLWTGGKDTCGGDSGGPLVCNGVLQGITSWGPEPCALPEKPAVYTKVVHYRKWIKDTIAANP

B1: GST-B-2 (peptide)
chain: CVFAHNYDYLVC
modifications: disulfide 1-12 (inferred); also: GST fusion, site not given here
A word on the Kd: it is the free concentration of one partner at which half of the binding sites on the other are occupied at equilibrium, for simple one-to-one binding. The IC50 is the concentration needed to halve the response being measured. Read a low IC50 as inhibition by little substance. As for B1, the Kd worked out at 3.5 µM with PSA [1]; 3.5 µM with PSA [2]; 3.1 µM with PSA [3]; 0.8 µM in the experiment with PSA [4]; 0.6 µM in the experiment with PSA [5]. Moreover, the binding result with hK2, in the experiment with PSA-API complex, with cathepsin G, with trypsin and in the experiment with PSA-ACT complex was “no binding” in each case. In addition, in the experiment with PSA [6], the IC50 is 0.001 µM.

B2: GST-A-1 (peptide)
chain: CVFTSDYAFC
modifications: disulfide 1-10 (inferred); also: GST fusion, site not given here
Turning to B2, the Kd with PSA [1] is 7.8 µM; with PSA [2], 7.8 µM; with PSA [3], 2.6 µM; with PSA [4], 1 µM; in the experiment with PSA [5] it was 1.4 µM. For the same molecule, the binding result with hK2, in the experiment with PSA-API complex, with cathepsin G, with trypsin and with PSA-ACT complex was “no binding” each time. Also, the concentration for half-maximal inhibition (IC50) with PSA [6] is 0.0033 µM.

B3: GST-C-4 (peptide)
chain: CVAYCIEHHCWTC
modifications: disulfide 1-13, 5-10; also: GST fusion, site not given here
As to B3, the binding result in the experiment with hK2, with PSA-API complex, with cathepsin G, in the experiment with trypsin and in the experiment with PSA-ACT complex was “no binding” each time. In the experiment with PSA [4], this molecule displayed a Kd of 0.86 µM. The molecule also had an IC50 in the experiment with PSA [6] of 0.0007 µM.

B4: GST-D-1 (peptide)
chain: CLSTCAQSCRISC
modifications: also: GST fusion, disulfide pairing not given here
Regarding B4, the binding result with PSA [7] is recorded as “no binding”.

(Values after patent US7414023 (dated 2008).)
